Reference: paper doi:10.1101/2025.03.06.641927, “Constitutively active RAS prolongs Cdc42 signalling while attenuating MAPK signalling during fission yeast mating” (bioRxiv, 2025)

T1: His6-Ras1.G17V (1-172), GTP-loaded (fission yeast (Schizosaccharomyces …, UniProt P08647 1-172, G17V))
T1 construct: Loaded with GTP by EDTA-mediated exchange (8 mM GTP, 12 mM EDTA, 37 C, 10 min; stopped with 20.5 mM MgCl2) just before the pull-down; Cloned in vector pLEICS1; also called Ras1.G17V^GTP; source: E. coli BL21 Rosetta, purified (Ni Sepharose 6 Fast Flow), dialysed, loaded with GTP
T1 sequence (looked up): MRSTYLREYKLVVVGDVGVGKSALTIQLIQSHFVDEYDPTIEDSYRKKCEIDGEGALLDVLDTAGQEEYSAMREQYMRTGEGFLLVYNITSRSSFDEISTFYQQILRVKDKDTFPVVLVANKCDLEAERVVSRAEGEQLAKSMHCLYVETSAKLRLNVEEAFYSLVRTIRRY


Tests used:
[1] = biological target: T1, His6-Ras1.G17V (1-172), GTP-loaded; assay: pull-down; GST fusion on glutathione sepharose beads incubated with GTP-loaded Ras1.G17V (1-172) in buffer A (20 mM Tris-Cl pH 7.5, 100 mM NaCl, 5 mM MgCl2, 1 mM beta-mercaptoethanol), 4 C, 30 min; bound fraction on SDS-PAGE, InstantBlue stain; settings: both partners purified
[2] = biological target: T1, His6-Ras1.G17V (1-172), GTP-loaded; assay: pull-down; competition: GST-Byr2 (65-180) on glutathione beads incubated with GTP-loaded Ras1.G17V (1-172) with or without Scd1 (760-872) fragment, buffer A, 4 C, 30 min; Ras1.G17V band on SDS-PAGE quantified with Fiji; settings: both partners purified

Binder	binding result [1]	binding result [2]
GST-Byr2 (65-180) (domain or fragment, UniProt P28829 65-180, looked up, Cloned in vector pLEICS4; also called GST-Byr2-RBD; Byr2-RBD; source: E. coli BL21 Rosetta, purified on glutathione sepharose 4B (kept on the beads); not shown: GST, N-terminal, kept) REFPRPCILRFIACNGQTRAVQSRGDYQKTLAIALKKFSLEDASKFIVCVSQSSRIKLITEEEFKQICFNSSSPERDRLIIVPKEKPCPSFEDLRRSWEIELAQPAALSSQSSLSP	binds	
GST-Scd1 (760-872) (domain or fragment, UniProt P40995 760-872, looked up, Cloned in vector pLEICS4; also called GST-Scd1-PB1; Scd1-PB1; source: E. coli BL21 Rosetta, purified on glutathione sepharose 4B (kept on the beads); not shown: GST, N-terminal, kept) SSSTSTSLSVRNTTNVKIRLRLHEVSLVLVVAHDITFDELLAKVEHKIKLCGILKQAVPFRVRLKYVDEDGDFITITSDEDVLMAFETCTFELMDPVHNKGMDTVSLHVVVYF	binds	
Scd1 (760-872) fragment (domain or fragment, UniProt P40995 760-872, looked up, also called Scd1-PB1 (cleaved from GST); not shown: GST, N-terminal, cleaved) SSSTSTSLSVRNTTNVKIRLRLHEVSLVLVVAHDITFDELLAKVEHKIKLCGILKQAVPFRVRLKYVDEDGDFITITSDEDVLMAFETCTFELMDPVHNKGMDTVSLHVVVYF		binds
